In patent US20070185028A1, “Compositions and methods for treatment of protein misfolding and protein aggregation diseases” (priority 2004, published 2007):

Columns and labels:
[1] = system: βL crystallin; assay: Chaperone assay, thermal aggregation of βL crystallin; format: biochemical; details: 1:10 target protein:peptide; light scattering 340 nm
Experimental: Chaperone Assays. Chaperone assays of the five peptides were performed using previously established methods with minor modifications. Muchowski et al., J Mol Biol 289: 397-411, 1999. A 1:1 monomeric molar ratio of chaperone:target protein was determined to be the optimum ratio and all subsequent chaperone assays of the β3 mutants were performed in triplicate and at a 1:1 monomeric molar ratio of chaperone:target protein in a 96-well ELISA micro-titer plate. […] of the chaperone and βL crystallin were mixed in a total volume of 200 μl buffer (5 mM PBS, pH 7.0). Light scattering at λ=340 nm was measured using a Multiskan MCC/340 plate reader before heating (time=0). After the first reading, the plate was heated at 50° C. and readings were taken at fifteen minute intervals for one hour.
The ability of the peptides to suppress the thermal aggregation of βL crystallin was measured spectrophotometrically as light scattering at λ=340 nm from solutions containing 1:10 monomeric molar ratio of target protein:peptide.

[2] = target: Aβ (Homo sapiens, UniProt P05067); assay: Aβ Thioflavin T fluorescence (fibrillization, 50° C., 72 hours); format: biochemical; details: 1:10 Aβ:peptide; for effect on the fibrillization of Aβ (ranking): 72 hrs; for Δfluorescence (Aβ): Thioflavin T, 50° C., 72 hours
Experimental: Aβ Thioflaviin T fluorescence. Aβ fibrils were grown in the presence and absence of αB crystallin and peptides in conditions similar to that previously described for the presence of αB crystallin. Bakthisaran et al., Biochem J, 2005. Peptides were dissolved to 9.1 mM in trifluorethanol (TFE) and diluted to 0.91 mM stock solutions in 50 mM PBS, 100 mM NaCl, pH 7.4. 3.5 mg of Thioflavin T was dissolved in 100 μl of 50 mM Glycine pH 8.5. A stock solution of 1 mg/ml (0.22 mM) Aβ was prepared. 20 μl Aβ, 50 μl chaperone, 2 μl Thioflavin T was mixed with 28 μl 50 mM PBS, 100 mM NaCl, pH 7.4. Fluorescence was read using a Beckman Coultier DTX 880 multimode detector. Samples were heated at 50° C. for 72 hours and fluorescence was read again.
The fibrillization of Aβ was measured as fluorescence of the fluorescent dye Thioflavin T from solutions containing 1:10 monomeric molar ratio of Aβ:peptide. In the absence of Aβ fibrils, Thioflavin T had little or no fluorescence. The fluorescence of the Thioflavin T bound to Aβ fibrils in the absence of any other molecule after 72 hrs was set to 100%. […] Fibril formation=ΔfluorescenceAβ (with chaperone)*100/ΔfluorescenceAβ (without chaperone).

[3] = target: T1, equine alcohol dehydrogenase (ADH) (Equus caballus, UniProt P00327); assay: αB crystallin protein pin array with alcohol dehydrogenase; format: binding; details: ADH as ligand in the pin array
T1 construct: purchased Sigma-Aldrich, MO 05646
Text: Synthesis of Pins, binding and detection of peptides binding to ligand proteins. The αB crystallin protein pin array was used to measure the interaction between peptides and chaperone target proteins including bovine βH crystallin, human γD crystallin, equine alcohol dehydrogenase (ADH) and porcine citrate synthase (CS) as described (FIG. 12). Ghosh and Clark, Protein Sci 14: 684-95, 2005.
Refer to the methods section for detailed protocols. The absorbance corresponding to the blue coloration in each well was measured at λ=450 nm and plotted against the amino acid sequence of the corresponding peptide in that well (FIGS. 13 and 14). Wells containing peptides that have strong interactions with target proteins are dark blue and wells containing peptides that have weak or no interaction with target proteins are light blue or clear.
The purity of the target proteins used in the pin array assays, bovine βH crystallin, human γD crystallin, equine alcohol dehydrogenase (ADH) and porcine citrate synthase (CS) were determined to be >90% by SDS-PAGE. In addition, primary antibodies for each target protein were specific to that target protein and consequently contaminating proteins that may bind to the peptides will not be detected. Eighty-four sequential and overlapping peptide fragments corresponding to residues 1-175 of human αB crystallin were synthesized employing a simultaneous peptide synthesis strategy developed by Geysen, called Multipin Peptide Synthesis (Mimotopes, San Diego, Calif.). Geysen, Southeast Asian J Trop Med Public Health 21: 523-33, 1990; Chin et al., J Org Chem 62: 538-539, 1997. Peptides were immobilized on derivatized polyethylene pins arranged in a microtiter ELISA plate format. Each peptide was eight amino acids in length and consecutive peptides were offset by two amino acids. All peptides were bound covalently to the surface of the plastic pins. The first peptide was 1MDIAIHHP8 and the last peptide was 168PAVTAAPK175 for human αB crystallin.
Ghosh and Clark, Protein Sci 14: 684-95, 2005. […] The intensity of the blue color in the wells was measured at 450 nm using an ELISA plate-reader (BioTek, Winooski, Vt.). The intensity of the blue color (plotted on the X-axis) was a measure of the interaction between αB crystallin peptides (plotted on the Y-axis) and target proteins. To measure the effect of temperature on the interactions between interactive peptides and the target proteins, the target proteins were heated in a water-bath at 45° C. for fifteen minutes prior to use. Pin arrays are unable to differentiate between monomers, dimers or oligomers of target proteins that exist in solution. Instead, pin arrays are very sensitive detectors of interactions between individual peptides and the entire population (monomers, dimers or oligomers) of specific target proteins that may exist in solution under specific conditions. Each target protein was assayed two to five times. A single pin array was used for all experiments and no change in interactions was observed after more than thirty repetitions. The last three peptides of the protein pin array, 163REEKPAVT170, 165EKPAVTAA172, 167PAVTAAPK174, correspond to the epitope (163REEKPAVTAAPKK175) recognized by the primary antibody for human αB crystallin. A positive reaction is observed for these three peptides in the absence of human αB crystallin as the ligand due to direct binding of the anti-human αB crystallin antibody to these three peptides. The loss of efficiency for the pin array was measured using this assay. The loss of efficiency for the pin array was determined to be <5% by after more than 30 assays.
The pattern of absorbance at k=450 nm when αB crystallin peptides were assayed with unheated and pre-heated ADH was similar to the absorbance pattern obtained with unheated and pre-heated βH/γD crystallin (FIG. 17). […]

T1 sequence (P00327 whole entry): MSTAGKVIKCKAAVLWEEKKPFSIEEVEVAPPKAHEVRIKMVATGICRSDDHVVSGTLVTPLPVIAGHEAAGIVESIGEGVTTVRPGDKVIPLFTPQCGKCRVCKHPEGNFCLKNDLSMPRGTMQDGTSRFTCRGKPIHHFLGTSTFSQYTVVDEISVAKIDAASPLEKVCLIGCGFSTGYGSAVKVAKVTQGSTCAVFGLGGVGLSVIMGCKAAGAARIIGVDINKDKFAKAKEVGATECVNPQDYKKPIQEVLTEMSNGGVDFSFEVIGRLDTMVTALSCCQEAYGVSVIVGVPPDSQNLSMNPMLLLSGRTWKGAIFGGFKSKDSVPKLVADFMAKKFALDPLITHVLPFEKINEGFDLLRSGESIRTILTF

Sequence	effect on the thermal aggregation of βL crystallin (ranking) [1]	effect on the fibrillization of Aβ (ranking) [2]	Δfluorescence (Aβ) [2]	absorbance at 450 nm, interaction with ADH [3]
DRFSVNLDVKHFS	identical and slightly lower than the HG peptide	strongest effect	264,396,672	–
ERTIPITRE	identical and slightly lower than the HG peptide	–	576,742,720	–
FSVNLDVK [Peptide 38]	–	–	–	Maximum absorbances
HGKHEERQDE	strongest effect	weakest effect	796,478,624	–
LTITSSLS [Peptide 66]	–	–	–	Maximum absorbances
LTITSSLSSDGV	identical and slightly lower than the HG peptide	–	352,301,312	–
STSLSPFYLRPPSFLRAP	weakest effect	–	478,389,568	–
WIRRPFFP [Peptide 5]	–	–	–	Maximum absorbances
